Assay [1] addresses T1, yeast methionine acetyltransferase (M-N^α AT) (Saccharomyces cerevisiae, UniProt Q06504).
T1 construct: a crude yeast homogenate from the aaa1 mutant strain; endogenous in cells; host or cells: Saccharomyces cerevisiae strain T3A-a (aaa1), crude lysate
T1 sequence (Q06504 1-195): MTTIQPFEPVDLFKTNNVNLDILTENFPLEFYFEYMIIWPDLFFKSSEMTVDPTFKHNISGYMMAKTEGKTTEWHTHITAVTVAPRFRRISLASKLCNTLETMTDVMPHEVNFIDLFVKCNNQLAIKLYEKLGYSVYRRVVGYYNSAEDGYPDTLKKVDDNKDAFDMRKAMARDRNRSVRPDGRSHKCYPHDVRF
T1 sequence (Q12387 2-796 partner limits assumed): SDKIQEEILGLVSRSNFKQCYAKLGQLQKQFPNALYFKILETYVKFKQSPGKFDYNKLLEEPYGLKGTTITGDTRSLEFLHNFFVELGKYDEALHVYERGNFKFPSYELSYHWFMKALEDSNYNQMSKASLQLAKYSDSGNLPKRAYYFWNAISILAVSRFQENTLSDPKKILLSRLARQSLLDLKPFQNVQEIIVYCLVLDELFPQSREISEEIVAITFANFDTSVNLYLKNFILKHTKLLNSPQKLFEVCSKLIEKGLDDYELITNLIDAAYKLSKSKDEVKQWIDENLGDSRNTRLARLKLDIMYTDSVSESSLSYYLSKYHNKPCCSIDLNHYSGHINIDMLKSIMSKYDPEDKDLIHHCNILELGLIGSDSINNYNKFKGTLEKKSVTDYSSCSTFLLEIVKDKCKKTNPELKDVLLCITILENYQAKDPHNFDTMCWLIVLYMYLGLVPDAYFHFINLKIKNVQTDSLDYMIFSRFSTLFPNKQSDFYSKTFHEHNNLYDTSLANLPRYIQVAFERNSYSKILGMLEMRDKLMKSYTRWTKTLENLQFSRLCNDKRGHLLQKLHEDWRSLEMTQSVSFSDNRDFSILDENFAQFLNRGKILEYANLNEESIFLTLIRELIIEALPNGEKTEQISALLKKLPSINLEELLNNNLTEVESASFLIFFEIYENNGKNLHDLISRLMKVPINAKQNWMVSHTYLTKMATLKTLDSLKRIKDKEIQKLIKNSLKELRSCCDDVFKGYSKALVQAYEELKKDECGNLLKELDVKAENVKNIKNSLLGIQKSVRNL
The assay is described as follows: Relative activity of yeast methionine acetyltransferase for N^α -acetylation of synthetic peptides (PAI analogues). The format is biochemical. Set-up: tested at 50 µM. The note with it: Table 5; mean ± SD (N=3-5); normalized to yeast proteinase A inhibitor 3. The procedure:
(§1) N^α -acetyltransferase activity was determined as previously described [Lee et al., J. Biol. Chem. 263:14948-14955 (1988)]. Aliquots of the lysate or chromatographic fractions were added to 1.5 ml Eppendorf tubes containing a reaction mixture of 50 mM HEPES, pH 7.4, 150 mM KCl, 1 mM DTT, 25 μM [^3 H] acetyl coenzyme A (0.5 μCi) and 50 μM synthetic peptide with an adjusted final volume of 100 μl. The assay mixture was incubated at 30° C. for 30 min. The reaction was stopped by adding 17 μl of 0.5M acetic acid and chilled in an ice bath. The reaction samples were filtered through SP membrane discs (Cuno) (previously pre-swollen in 0.5M acetic acid), and then washed three times with 1 ml of 0.5M acetic acid on a Millipore 1225 sampling manifold. The partially dried membranes were placed in scintillation cocktail and counted with a Beckman LS 3801 scintillation counter. One unit of activity was defined as the amount of enzyme able to transfer 1 pmol of [^3 H] acetyl group from [^3 H] acetyl coenzyme A to synthetic peptide per min under standard enzyme assay conditions defined above.
Proteinase A inhibitor 3 (PAI) (Tsunasawa et al., Methods Enzymol. 106:165-170 (1984); Wold, F., Trends Biochem Sci. 9:256-267 (1984); Driessen et al., CRC Crit. Rev. Biochem 18:281-325 (1985); Mullen et al., EMBO J. 8:2067-2075 (1989); Lee et al., J. Bacteriol. 171:5795-5802 (1989); Hershko et al., Proc. Natl. Acad. Sci. USA 81:7021-7025 (1984); Bachmair et al., Science 234:179-186 (1986); Arfin et al., Biochemistry 27:7979-7984 (1988); Persson et al., Eur. J. Biochem. 152:523-527 (1985); Huang al., Biochemistry 26:8242-8246 (1987); Lee et al., J. Biol. Chem. 263:14948-14955 (1988); Kamitani et al., J. Biol. Chem. 264:13188-13193 (1989)) is the only known yeast protein which is acetylated at its NH2 -terminal methionine residue (Biedermann et al., Carlsberg Res. Commun. 45:225-235 (1980)). […] The numbers in parentheses refer to the residue numbers, and the letters in parentheses refer to the amino acid sequence Abbreviations are as in FIG. 1. Data are reported as mean activity ±SD (N=3-5) and are normalized to the activity of the homogenate towards yeast proteinase A inhibitor 3. The sequence of this protein is:
Thus, by using PAI, its analogues and other peptides, the structural features of M-N^α AT substrates were studied. […] Only three of nineteen analogues were acetylated, although the efficiency of their acetylation varied from 9-55% (Asp>Glu>Gln). Although it was shown previously that iso-cytochrome c variant proteins (Met-Ile-Arg - - -, Met-Ile-Lys - - -, Met-Met-Asn - - -) can be N^α -acetylated in vivo (Tsunasawa et al., J. Biol. Chem. 260:5382-5391 (1985)), synthetic peptides mimicking the NH2 -terminal 24 amino acid residues of these iso-cytochrome c variants were not acetylated by the yeast M-N^αAT.

In the next assay the target is T2, yeast N^α AT (Saccharomyces cerevisiae, UniProt P07347+P12945).
T2 sequence (P12945 2-854 limits assumed): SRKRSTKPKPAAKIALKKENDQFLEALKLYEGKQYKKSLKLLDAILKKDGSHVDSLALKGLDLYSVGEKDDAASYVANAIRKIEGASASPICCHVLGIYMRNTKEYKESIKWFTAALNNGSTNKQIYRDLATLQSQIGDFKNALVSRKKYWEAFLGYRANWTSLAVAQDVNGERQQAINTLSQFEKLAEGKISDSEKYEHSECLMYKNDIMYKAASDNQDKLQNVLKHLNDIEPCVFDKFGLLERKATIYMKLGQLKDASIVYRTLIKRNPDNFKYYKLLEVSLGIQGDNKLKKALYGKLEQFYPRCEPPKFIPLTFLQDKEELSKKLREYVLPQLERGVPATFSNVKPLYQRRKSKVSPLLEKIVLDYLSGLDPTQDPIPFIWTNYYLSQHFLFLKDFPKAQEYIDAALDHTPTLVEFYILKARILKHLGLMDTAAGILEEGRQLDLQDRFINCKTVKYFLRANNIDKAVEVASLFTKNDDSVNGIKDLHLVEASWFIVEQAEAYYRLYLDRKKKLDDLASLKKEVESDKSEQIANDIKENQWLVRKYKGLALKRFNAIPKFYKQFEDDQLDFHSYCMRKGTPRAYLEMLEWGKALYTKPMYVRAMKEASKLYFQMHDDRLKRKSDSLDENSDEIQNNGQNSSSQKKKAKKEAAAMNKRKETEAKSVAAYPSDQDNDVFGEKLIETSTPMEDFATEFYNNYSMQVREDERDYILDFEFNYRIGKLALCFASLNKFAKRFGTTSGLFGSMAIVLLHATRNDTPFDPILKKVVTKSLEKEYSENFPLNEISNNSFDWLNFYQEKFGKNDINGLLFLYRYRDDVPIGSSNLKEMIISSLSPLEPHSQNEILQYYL
T2 sequence (P07347 1-238): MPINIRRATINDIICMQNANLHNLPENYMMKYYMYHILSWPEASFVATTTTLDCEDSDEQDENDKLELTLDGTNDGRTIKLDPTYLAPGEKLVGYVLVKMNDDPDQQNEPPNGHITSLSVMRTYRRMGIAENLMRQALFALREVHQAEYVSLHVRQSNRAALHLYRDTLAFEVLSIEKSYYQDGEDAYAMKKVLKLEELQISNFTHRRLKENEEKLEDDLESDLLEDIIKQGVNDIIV
The assay is described as follows: Effect of ions and reagents on yeast N^α AT (comparison in the discussion). Format: biochemical.

The test system of assay [2] is methionine N^α -acetyltransferase from S. cerevisiae. In words: Effect of protein modification reagents on enzyme activity. The format is biochemical, Saccharomyces cerevisiae. The procedure: as §1
In order to determine the possible catalytic role for different types of amino acid residues in the enzyme, various chemical modifications were carried out (Table 10). Yeast methionine acetyltransferase was incubated with each reagent at 30° C. for 15 min, dialyzed against 50 mM HEPES, pH 7.4, 150 mM, 1 mM DTT at 4° C. for 3 to 4 hr. The enzyme activity was determined under standard assay conditions using PAI (N=3), assayed as described above.

“And” between values parts separate entries of the source, which are not always exact repeats. Equal entries are not always repeated. Where two headings read alike, the source gives them in different places.

For “[Trp2 ]PROTEINASE A INHIBITOR 3 (1-24) (Yeast): synthetic PAI analogue with substitution at penultimate position (Trp) (MWTDQQKVSEIFQSSKEKLQGDAK; UniProt P01094 1-24, looked up, variant N2W)”, in assay [1], the “Activity (%)” value was found to be 0%.

On to “[Pro2 ]PROTEINASE A INHIBITOR 3 (1-24) (Yeast): synthetic PAI analogue with substitution at penultimate position (Pro) (MPTDQQKVSEIFQSSKEKLQGDAK; UniProt P01094 1-24, looked up, variant N2P)”, for which the “Activity (%)” value in assay [1] amounted to 0%.

`O=C(O)c1cc[c]([Hg][Cl])cc1` [pCMB, p-chloromercuribenzoate]: the “effect of reagent on N^α AT activity” value on yeast N^α AT is reported as “inability”. Besides, the “effect of reagent on M-N^α AT activity” value in assay [2] (1 mM) is reported as “without effect”; in assay [2] (10 mM) it was “partial inactivation”; in assay [2] (concentration not given), “inability”. Besides, the “Enzyme Activity (%)” value came out at 94% in assay [2] (reagent 1.0 mM, 30° C. 15 min, then dialyzed, substrate PAI (N=3)) and 25% in assay [2] (reagent 10.0 mM, 30° C. 15 min, then dialyzed, substrate PAI (N=3)).

In the case of “[Phe2 ]PROTEINASE A INHIBITOR 3 (1-24) (Yeast): synthetic PAI analogue with substitution at penultimate position (Phe) (MFTDQQKVSEIFQSSKEKLQGDAK; UniProt P01094 1-24, looked up, variant N2F)”, in assay [1], the “Activity (%)” value is on record as 0%.

For “[Val2 ]PROTEINASE A INHIBITOR 3 (1-24) (Yeast): synthetic PAI analogue with substitution at penultimate position (Val) (MVTDQQKVSEIFQSSKEKLQGDAK; UniProt P01094 1-24, looked up, variant N2V)”, the “Activity (%)” value in assay [1] was determined as 0%.

In the case of `O=C(O)CI` [IAA, iodoacetic acid], the “effect of reagent on N^α AT activity” value on yeast N^α AT is reported as “inability”. Moreover, the “Enzyme Activity (%)” value in assay [2] was 102% and 75%.

For the compound “[Ile2 ]PROTEINASE A INHIBITOR 3 (1-24) (Yeast): synthetic PAI analogue with substitution at penultimate position (Ile) (MITDQQKVSEIFQSSKEKLQGDAK; UniProt P01094 1-24, looked up, variant N2I)”, the “Activity (%)” value in assay [1] was 0%.

Regarding “[Asp2 ]PROTEINASE A INHIBITOR 3 (1-24) (Yeast): synthetic PAI analogue with substitution at penultimate position (Asp) (MDTDQQKVSEIFQSSKEKLQGDAK; UniProt P01094 1-24, looked up, variant N2D)”, the “Activity (%)” value in assay [1] was 55 ± 5%.

With “[Met2 ]PROTEINASE A INHIBITOR 3 (1-24) (Yeast): synthetic PAI analogue with substitution at penultimate position (Met) (MMTDQQKVSEIFQSSKEKLQGDAK; UniProt P01094 1-24, looked up, variant N2M)”, the “Activity (%)” value in assay [1] was 0%.

For “[Gln2 ]PROTEINASE A INHIBITOR 3 (1-24) (Yeast): synthetic PAI analogue with substitution at penultimate position (Gln) (MQTDQQKVSEIFQSSKEKLQGDAK; UniProt P01094 1-24, looked up, variant N2Q)”, the “Activity (%)” value in assay [1] was determined as 9 ± 3%.

“[His2 ]PROTEINASE A INHIBITOR 3 (1-24) (Yeast): synthetic PAI analogue with substitution at penultimate position (His) (MHTDQQKVSEIFQSSKEKLQGDAK; UniProt P01094 1-24, looked up, variant N2H)”: the “Activity (%)” value in assay [1] is recorded as 0%.

Consider “[Gly2 ]PROTEINASE A INHIBITOR 3 (1-24) (Yeast): synthetic PAI analogue with substitution at penultimate position (Gly) (MGTDQQKVSEIFQSSKEKLQGDAK; UniProt P01094 1-24, looked up, variant N2G)”, for which the “Activity (%)” value in assay [1] is 0%.

The values are drawn from patent publication US5223421A, “Identification of methionine Nα-acetyltransferase” (The General Hospital Corporation, priority 1990, dated 1993).
